For assay [1], the target named is EspB cyclic peptide #49 (positions 193-207) (Enteropathogenic Escherichia coli (EPEC)). The assay can be described thus: ELISA, plate coated with peptide #49, serially diluted mAb, anti-human IgG-HRP. A general note: In an ELISA, binding on a coated surface is turned into a signal by an enzyme label.
In assay [2] the target is EspB cyclic peptide #50 (positions 197-211) (Enteropathogenic Escherichia coli (EPEC)). The assay can be described thus: ELISA, plate coated with peptide #50, serially diluted mAb, anti-human IgG-HRP.
Assay [3] has as its target mAb-EspB-B7.

B1: mAb-EspB-B7 (antibody, V domains shown)
VH: EVQLLESGGGLVQPGGSLRLSCAASGFTFSHYAMNWVRQAPGKGLEWVSAINSNGDSTYYPDTVKDRFTISRDNSKNTLYLQMNSLRAEDTAVYYCARDRRAGYFDYWGQGTLVTVSS
VL: DIVLTQPPSASGTPGQRVTISCSGSRDNIGKNYVSWYQQLPGTAPKLLIYRNNQRPSGVPDRFSGSKSGTSASLAISGLRSEDEADYYCSAWDTSLNAYVFGPGTQLTVL
In general, EC50 (read off the curve) refers to the concentration needed to bring the measured effect to its halfway point. Higher therefore signals weaker potency. Take B1: the EC50 (read off the curve) in assay [1] and in assay [2] was 0.5 µg/mL each time.

In turn, CTSAQKASQVAEEAADC (modifications not checked) [EspB cyclic peptide #49 (positions 193-207)] gave an IC50 (read off the curve) in assay [3] of 0.8 µg/mL.

These data come from patent publication US20250264433A1.
